This data set in a line: label from the status in PepcDB records.

Take “TTSDNTALFYRHWPTLLPGAKKVIVLFHRGHEHSGRLQHIVDELAMPDTAFYAWDARGHGQTSGPRGYSPSLARSVQDVDEFVRFAASDSQVGLEEVVVIAQSVGAVMVATWVHDYAPAIRGLVLASPAFKVKLYVPLARPGLALWHRLRGLFFINSYVKGRYLTHDRQRVASFNNDPLITRAIAVNILLDLYKTSERIVSDAAAITLPTQLLISGDDYVVHRQPQIDFYQRLRSPLKELHLLPGFYHDTLGEENRAQAFEKMQSFISRLYA”: the protein production result was “failed”.
Regarding “TVAVSQIVEHPALDATRQGLLDGLKAKGYEEGKNLEFDYKTAQGNPAIAVQIARQYVGESPDVLVGIATPSAQALVSATRTIPVVFTAVTDPVGAKLVKSMKQPGKNVTGLSDLSPVAQHVELIQEILPQVKSIGVVFNPGEANAVTLVNLLKESAEAKGIKVVEATALKSADVQSATQAIAAKSDILYAPTDNTVASAIEGMIVAANQAKKPVFGGATSYVEKGAIAGLGFDYYQVGVQTADYVAAILDGQEPGKLDVKVATGSDLVINESAASKLGIQLPSSVVQRATSMQ”, the protein production entry is on record as “not failed”.
Regarding “TVDRSVAIVGTRAMSHYGKSATSMLAAGIADHHWTIVSGGALGVDTVAHTEALQRQKPTVAVCARGLDAPYPRKNAELLRSIVETGCLVSEYAPGLTPHRHRFLTRNRLVAALSQGTVVVEAAWRSGALNTLSWASALGRVAMAVPGPVTNTGSLGCHERIRNKEAELVCSAEEILALVGTLGEFDPN”, the protein production result is recorded as “failed”.
In the case of “TVDWASMKWARPYLNTNSLGANPKQPGDVAKVGDLVRLLRQDDGSLKFSQIPVAQSALVSLDPQNGAIRALVGGFAFEQSNYNRAMQAKRQPGSSFKPFIYSAALDNGYTASSLVNDAPIVFVDEYLDKVWRPKNDTNTFLGPIRLREALYKSRNLVSIRLLQALGVDSTIDYITRFGFAKQDLPRNLSLALGTATLTPMEIATGWATFANGGYKVSPYLIQTIENRDGQTLFVANPPSVPVNDVNTAPNTSTFAVHDSPSVVASPPGSPAQPQAPAVAERIVDGRTTYILNSMLQDVIKRGTGRRALSMNRPDIAGKTGTTNDSKDAWFSGYNADYVTTVWSGFDQPESLGRHEFGGTVSLPIWMDYMSAALKDKPPHQQ”, the protein production result is “failed”.
“TVEEVIEETPEKSELELANERADEFENKYLRAHAEMQNIQRRSSEERQQLQRYRSQDLAKAILPSLDNLERALAVEGLTDDVKKGLEMTRDSLIQALKEEG”: the protein production entry is listed as “not failed”.
In the case of “TVHKQDGKVLEIELSSLKEALSFVSLIDGYYRLTADAHHYLCKEVAPPAVLENIHSNCHGPISMDFAISKLKKAGNQTGLYVLRCSPKDFNKYFLTFAVERENVIEYKHCLITKNENGEYNLSGTKRNFSNLKDLLNCYQMETVRSDSIIFQFTKCCPPKPKDKSNLLVFRTNGISDVQISPTLQRHNNVNQMVFHKIRNEDLIFNESLGQGTFTKIFKGVRREVGDYGQLHKTEVLLKVLDKAHRNYSESFFEAASMMSQLSHKHLVLNYGVCVCGEENILVQEFVKFGSLDTYLKKNKNSINILWKLGVAKQLAWAMHFLEEKSLIHGNVCAKNILLIREEDRRTGNPPFIKLSDPGISITVLPKDILQERIPWVPPECIENPKNLNLATDKWSFGTTLWEICSGGDKPLSALDSQRKLQFYEDKHQLPAPKWTELANLINNCMDYEPDFRPAFRAVIRDLNSLFTPDYELLTENDMLPNMRIGALGFSGAFEDRDPTQFEERHLKFLQQLGKGNFGSVEMCRYDPLQDNTGEVVAVKKLQHSTEEHLRDFEREIEILKSLQHDNIVKYKGVCYSAGRRNLRLIMEYLPYGSLRDYLQKHKERIDHKKLLQYTSQICKGMEYLGTKRYIHRDLATRNILVENENRVKIGDFGLTKVLPQDKEYYKVKEPGESPIFWYAPESLTESKFSVASDVWSFGVVLYELFTYIEKSKSPPVEFMRMIGNDKQGQMIVFHLIELLKSNGRLPRPEGCPDEIYVIMTECWNNNVSQRPSFRDLSLRVDQIRDSIAA”, the protein production entry was “failed”.
Regarding “TYIDGSIKRKHLVQNNQPVTLYWLRFQKSIVDTNKQDLQQSLQINTGQEPKTQALAQQILKQSDADPARYVKNILDWYRQQDFIYTLSPEQLNGNRTDQFLFQTRNGFCEHYASSFVLLMRYAGIPARVVIGYQGGQLAPDAQSLEVRQLDAHAWAEVLIDDSWHRIDPTAAIAPARLEHGMQYYLQEDRRIWGSEQHLFWKQQNFHLIQSFRVWSDYLQYQWQSKVIGYNVDQQKSFFSKLGIRSVYSAIVIMLLSICGLVIVYGIYVAYKRRGQSSFIEYQISRFQRKMSPSMKKQKSETFKVW”, the protein production result is “failed”.
With “VAEVPEEHKSKDGNTTVGYVIFFYTYSTWKGRTVYMEDLYVMPEFRGNGIGKALLGAVAKEAKDQLCSRLQFSVLDWNKPSLDFYMAKGAEDLTAKEGWHFLRFHGMALDNLAQEAP”, the protein production result is “failed”.
Take “VARCQVPDCEADISELKGYHKRHRVCLRCATASFVVLDGENKRYCQQCGKFHLLPDFDEGKRSCRRKLERHNNRRKRKPVDKGGVA”: the protein production result was “not failed”.
Turning to “VDEPESMVNLAFVKNDSYEKGPDSVVVHVYVKEICRDTSRVLFREQDFTLIFQTRDGNFLRLHPGCGPHTTFRWQVKLRNLIEPEQCTFCFTASRIDICLRKRQSQRWGGLEAPAARVGGA”, the protein production entry was “not failed”.
Take “VDMDVTTAKLVVGFRGYLTLTQHSLLTYRIALKLFLSMLIGWTSKIYHTLYEDGKIDDSFDVDVEIHHNFQFVLISLDTPEPIAMSNYIRQKLATIKISKEFTNEHLNLLKKEMYGDFIQSLDSIEHLTHQFSLYLSDSDKETYFDIPKIIERLTLKDVVTIGKAFFEKADASDFTVFPK”: the protein production result was “failed”.
As to “VDMLLVGAGIMSATLAVLLKELDPNLKMEVVELQESGAIESSNPWNNAGTGHAGLCELNYTPQSADGSIDIKKAVGINTMFEVSKQFWSHLVAKGTFGSPKTFINPVPHLSFVRGSEGIAYLKKRFESLTKHHAFETMVYSEDKATLAEWMPLMMPGRPADEAIAATRVEGGTDVNFGALTNQLLQHLAQQPGAQIRYNQKVTHLRRADNGWRVTVKDTRNGGDREIQARFVFLGAGGGALPLLQLSGIPEGKGFGGFPVSGQWLRCDNPEIVKQHQAKVYSQAEVGSPPMSVPHLDTRVVDGKKSLLFGPYAGFSTKFLRHGSFLDLPLSVRPGNILPMLSVARDNMDLTRYLIGQVMQSPEQRLEALRKFYPEARAEDWRLEVAGQRVQIIKKDPKKGGILQFGTELVAAHDGSIAALLGASPGASVTVSIMLGLIERCFPEQARSPEWSAKLKEIFPAREKELESDAELYRSVSSRCSEVLELTAKNDVQAPVNAE”, the protein production entry is given as “failed”.
In the case of “VDVENPILITSFPGIGLVGTIATAHYIMELKLESIGIVDSRLLPPVASLYEGVILPPVRVYQSADLGFVLIHSDVPIIPQAAIDMSKKIVQFAAEINARRVYSFAGVATFEDKKRVFAAATSKELLEEVKDHAEIFKTGTISGIAGSIMNECVAAKMPGIVLLGETLGFNPDPRAAASLIEAVNKIMNWNVSVEKLLKEAEMIEAQMQKLAEQARMQEERKEEFPMYG”, the protein production result is “failed”.
Consider “VEGRTVTYGQQNGTARTGYLAAPADVDSVRSARGGDALPGIVVIHEWWGLNDNVRAATRRLAGEGYRALAVDLYGGAVAETPDSAQALMGQAMREPSRLVENVRDGRAYLSSEADAPRTALLGWCFGGGMTYRTLAEEASAFDAAVAYYGTPDPLAGEALQALETPILAHFGTQDQAVPIDAARKFRDRMEDAGTSLAYHEYDAGHAFANPSGESYEPAAAEQAWTRTTDFLQTHL”, for which the protein production result is on record as “failed”.
The value for “VEIRTGEFEDVAGITDIFNFYIEHTNARFEEFPFTLENREEWFSQFSRTTKYQIYVAVENGVLQGFACSQKYRAIPAFDDTVEVSVYLAQEAKGKGLGSKLYTQLFSSIRAYGVHRILSGVALPNDASVALHKRFGFREVGIFNEYAKKHGQYISSVWLEKALNVESAL” was “not failed”; that for “VEPSEENSKDCVVCQNGTVNWVLLPCRHTCLCDGCVKYFQQCPMCRQFVQESFAL” was “not failed”; that for “VGSVLEIKDPENLKNLGSLIGEEIAKLHQALNSVNSNNELVKRELYKLVYEWALPNLEKNEHVDQDVVRTMNQIHSDFKKTITSLRKQIIHRDMHLSNVIFKDNEFQGFIDFELLERNVRVFDLCYCCTSILSELHSDEELRGKWQHIISKIFEGYNKQSILTREELQAIWYVMLSIQVIFITYFVQLPDLLKLNEEMFF” was “failed”.
As to “VHCLFVGAGSIAAEYAAELADSPLSLAGVCDLEEDRATALAAAHDCPAFTDLDTALSAVDAPLVVNLTNHAAHAPVTRTALEAGRHVYSQKPLALDEAAAAELLALAQDRNLALGCAPGTPDAPSQRRAGQMLADGRMGPVQLGYAHAHVGRV”, the protein production result is recorded as “failed”.
On to “VIKFSSEDCGTCHKMSHYDANVAEELGAEFVSVMLQDTEAYRKYRKVLLKQYPNKEGMGWPTYLLVTDPEGDFTIHGELKGGMPKGEFRTRLGALLA”, for which the protein production entry was “failed”.
With “VKNGNDTRMTLLNNWESTYFDFDENKLIGLMDEATKLGVDMFLLDDGWFANKYPRSSDHQGLGDWEETADKLPNGVGRLVEEAQKKGIKFGIWIEPEMVNPKSELYEKHKDWVIHLPNRDEYYFRNQMVLDLSNPKVQDHVFGVVDNLMTKYPGIAFFKWDCNSPITNIYSVYLKDKQSHLYVDYVRGLYKVLDRIKAKYPNLPMMLCAGGGGRSDYEALKYFTEFWPSDNTDPIERLFIQWGYSQIFPSKTLCAHVTTWNRGTSIKFRTDVAMMCKLGFDIKLEDMNQNEHLYCDQAVKNYNRLKPVILEG”, the protein production result is reported as “failed”.
As for “VKSKAKKTVDAHSDEYKIRRERNNIAVRKSRDKAKMRNLETQHKVLELTAENERLQKKVEQLSRELSTLRNLFKQLPE”, the entry is “not failed”.
In the case of “VKTPGTRYVTHKQLDEKLKNFVTKTEFKEFQTVVMESFAVQNQNIDAQGEQIKELQVEQKAQGKTLQLILEALQGINKRLDNLES”, the protein production result is on record as “not failed”.
As to “VKTWPAPTAPTPVRATVTVPGSKSQTNRALVLAALAAAQGRGASTISGALRSRDTELMLDALQTLGLRVDGVGSELTVSGRIEPGPGARVDCGLAGTVLRFVPPLAALGSVPVTFDGDQQARGRPIAPLLDALRELGVAVDGTGLPFRVRGNGSLAGGTVAIDASASSQFVSGLLLSAASFTDGLTVQHTGSSLPSAPHIAMTAAMLRQAGVDIDDSTPNRWQVRPGPVAARRWDIEPDLTNAVAFLSAAVVSGGTVRITGWPRVSVQPADHILAILRQLNAVVIHADSSLEVRGPTGYDGFDVDLRAVGELTPSVAALAALASPGSVSRLSGIAHLRGHETDRLAALSTEINRLGGTCRETPDGLVITATPLRPGIWRAYADHRMAMAGAIIGLRVAGVEVDDIAATTKTLPEFPRLWAEMVGPGQGWGYPQPRSGQRARRATGQGSGG”, the protein production result was “not failed”.
The value for “VLASILLSQAAYESNYGSSLLSVKYHNIYSLPARPGQEHIYLKDNVYSKGKWQYQKVDFAVFRDWSSSMSSYLEELRQGRWGESTYKEVAGTTSYKVAAEKLQAAGFNSDPDYTKHLISIIETYNL” was “failed”.
Turning to “VPLEARMKQFKDMLLERGVSAFSTWEKELHKIVFDPRYLLLNPKERKQVFDQYV”, the protein production entry was “failed”.
Take “VPPDTLHSLPKSQVKRQEVISELLVTEAAHVRMLRVLHDLFFQPMAECLFFPLEELQNIFPSLDELIEVHSLFLDRLMKRRQESGYLIEEIGDVLLARFDGAEGSWFQKISSRFCSRQSFALEQLKAKQRKDPRFCAFVQEAESRPRCRRLQLKDMIPTEMQRLTKYPLLLQSIGQNTEEPTEREKVELAAECCREILHHVNQAVRDMEDLLRLKDYQRRLDLSHLRQSSDPMLSEFKNLDITKKKLVHEGPLTWRVTKDKAVEVHV”: the protein production entry is reported as “failed”.
In the case of “VSERKAMQKRLTRRERRFRMMFEGHSAPMLLIDEETGAIEQANAAAVEFYGYERDILMSMSIQDINQLPAEEVARERREAAEDGDEFLFEHELASGAVRTVRVLSAPIPNLDRAGTLLFSVIHD”, the protein production result is recorded as “failed”.

The values above are taken from a protein production outcome set (Wang et al. 2014).
